This data set deals with the molecule itself. Description: SEC; Biosep-SEC-S3000 column; 20 mM Tris-HCl, 20 mM MES, 200 mM NaCl, 10 mM MgCl2, 0.1 mM EDTA, 7 mM 2-mercaptoethanol, pH 6.5; 25 °C; apparent molecular mass against injected monomer concentration, fitted to a monomer-dimer equilibrium; apparent constants; dimer to monomers.

B1: V583 ArdA (ArdA protein from Enterococcus faecalis V583, Orf EF2335) (natural protein, UniProt Q832A5 1-166, looked up)
chain: MEQMRVYIANLGKYNEGELVGAWFTPPVDFDEVKERIGLNDDYEEYAIHDYELPFEIDEYTSIEEINRLCGLAEELEGTPIGEVASEIQHAFFNSFEEMVEHVDDIVYYPDCNDMEDLAYQMVNEGYLGDAPENFVRYFNYSSFARDLEIEGNYLVTNRGIFEYPI
notes: ArdA protein, open reading frame EF2335 of Enterococcus faecalis V583; In solution an equilibrium of monomer and dimer; source: overexpressed, purified (DEAE anion exchange chromatography, size exclusion chromatography)
For the protein B1, the Kd amounted to 980 nM.

These data come from article PMC3969726, “ArdA proteins from different mobile genetic elements can bind to the EcoKI Type I DNA methyltransferase of E. coli K12^☆” (Biochimica et Biophysica Acta, 2014).
